Results taken from publication PMC2217137.

Molecular target: rabbit skeletal muscle Ca2+ release channel (ryanodine receptor), purified 30 S complex (rabbit) (UniProt P11716)
Assay: single-channel recording in planar lipid bilayers

Row | Substance | K m (of P substate against [IpTxa]) [nM] | Kd [nM] | time constant of dwell times in the burst (toxin-free) state at 100 nM IpTxa [ms] | time constant of dwell times in the subconductance (toxin-bound) state [ms]
1 | imperatoxin activator (IpTxa), synthetic (from UniProt P59868 1-33) (peptide) | 2 |  |  | 
2 | imperatoxin activator (IpTxa), native, purified from Pandinus imperator venom (from UniProt P59868 1-33) (peptide) |  | 18.2 | 965 | 3380
